Measurements from publication PMC3118792.

Target: mixture of human tenascin and human fibronectin matrix proteins (human)
Test: SPR; BIAcore X, CM4 chip with an amine-coupled mixture of human tenascin and human fibronectin (4100 RU); samples injected at 1 µM in HBS (10 mM HEPES, 150 mM NaCl, 3 mM EDTA, 0.05% P20, pH 7.4), 5 µl/minute, 25°C, 1 minute, then 1 minute dissociation; reference cell subtracted

response (RU) | Substance
> 2000 RU | AvidinOX (from UniProt P02701 25-152)
30 RU | avidin (from UniProt P02701 25-152) (natural protein)
